Measurements as given in the supplement of paper PMC12042874.
± gives the uncertainty stated by the source.

Experiment: amyloid nucleation score (Sup35N fusion, yeast selection) (log enrichment); library NNK3; higher = more nucleation; inactive = no reads after selection
In short: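 Libraries of peptides of 20 random codons fused to Sup35N were expressed in psi-negative yeast and induced 24 hours with 100 μM copper sulfate. Selection was 7 days at 30°C on medium lacking adenine and uracil, and plasmid inserts were Illumina-sequenced before and after selection. Nucleation score is the DiMSum log enrichment of output over input reads, centred on the mode score of non-aggregating sequences, and sequences with under 100 input reads were left out.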

| Substance | amyloid nucleation score |
| --- | --- |
| IDLRC | inactive |
| IDRSLLSGFSNLHICSICCT | 1.2 ± 0.12 |
| IDVRGSMYGVMMYHSTRDVT | inactive |
| IEAEHYCLLLVFLQVGLSSA | inactive |
| IEGEYLVASAWRFLQSKHAH | inactive |
| IEKASACNG | inactive |
| IEQGGI | inactive |
| IERGSDFLLHAMAYSFIGCL | -0.416 ± 1.1 |
| IETAGSTHSSTWGDYSNRLC | inactive |
| IEVVYNLFWSRTFGAFVTKV | inactive |
| IFCAPRAEVSGSYYRGNVSV | inactive |
| IFFVRSDAFKFSILSVNASL | -0.37 ± 0.56 |
| IFGFDYIAPFFCVTFGIRRV | inactive |
| IFLVVPGHDLWNCRRS | inactive |
| IFNLMFYFVVRNE | 3.01 ± 0.071 |
| IFSFTLSLSFGVFLNMFSVD | inactive |
| IFSLLPVDILVTLY | inactive |
| IFTLCITGGV | inactive |
| IFVLVYNISSNTGNYSIGFV | 0.934 ± 0.15 |
| IFVNWMVISVGLARFDVINA | -0.579 ± 0.69 |
| IFVWYMNVSCGMVDRYGLPM | inactive |
| IFWICWLGFVNCVYTAEIPT | inactive |
| IGFFEFIKELITWKILS | inactive |

| Substance | amyloid nucleation score |
| --- | --- |
| IGFGSWFSKVSPNVEFVGAL | inactive |
| IGRAIVHWYWFSSL | inactive |
| IGVKSYWLRRSYLLFKYWMV | inactive |
| IHCGACYSACWVRLGAWMTC | inactive |
| IHFNWLIYITNTYVRRIFRC | inactive |
| IHLSCMIIKRHLSRYCDQSR | inactive |
| IHLTCLWVYQDLLV | inactive |
| IHRNEYMMRKKDRILQNLAV | inactive |
| IHVMSWKQSYSI | 0.949 ± 0.15 |
| IHYPKCVAGLCSRSLCTAVV | inactive |
| IIEPYTFCFRICVWGGEWIV | inactive |
| IIFWNICPAYCYL | 2.29 ± 0.059 |
| IIGWASWCVGKGHLTFCQLV | inactive |
| IIIFWLFLSGEIDECNNCAV | inactive |
| IIKWSCYNLSLYHTKCKDAE | inactive |
| IIMLTFQVNVTFASVWRTRS | inactive |
| IIRAFDTYVCCKFGNCSVHM | 2.59 ± 0.052 |
| IISCYTNKMIVVTWCYPLRR | 0.116 ± 0.19 |
| IIYMMLYVKEGMSWTSLPDQ | inactive |
| IIYPLMKAWISDMLMVISIS | inactive |
| IKAGTEVVFRTSDLFMTMLQ | inactive |
| IKFHW | inactive |
| IKIMFLTAVYVMVGLQIIAT | inactive |

| Substance | amyloid nucleation score |
| --- | --- |
| IKLVDLPCSLVNTGSTVNRE | inactive |
| IKSGFW | inactive |
| IKTGYSTHDPNHVDNTIRSR | inactive |
| ILARYLDIYMSSVPVEWVTK | inactive |
| ILCFGLLN | inactive |
| ILFTYCSYINREVLRWMQDS | inactive |
| ILGRSSISFDLM | inactive |
| ILIWRSGCYWTSPTEGVFRF | 0.572 ± 0.2 |
| ILNMAVGALWGLMIWSVMLF | inactive |
| ILNTVIGSQLDELPVAAFSS | inactive |
| ILQKQVTTRLSINSENLHL | 0.256 ± 0.21 |
| ILRHKCDEQPVRVSGHCFA | inactive |
| ILRNRNDIQNAYCRNKY | inactive |
| ILRYLSIVPRNFYRCYGHFG | inactive |
| ILSKVNSKSDKRSF | inactive |
| ILSLSQMNT | inactive |
| ILSRRLRLQLLFDFYNCLCG | inactive |
| ILSSKSTNENVSYFLLKM | 0.794 ± 0.099 |
| ILVCESV | inactive |
| ILVKIVSWVHLKRTVGTDQD | inactive |
| ILVSFVVGTNLLWGDASVRW | 0.236 ± 0.48 |
| ILWFMDGMIRSRGVPLGDGC | inactive |
| ILYICHINKGVGGQIGVMAV | inactive |

| Substance | amyloid nucleation score |
| --- | --- |
| ILYSGVIILYSFYIRRPMVL | inactive |
| IMCYLSITRWKDM | inactive |
| IMELLQV | inactive |
| IMIYSQPKGEASCFGCFRLG | 0.702 ± 0.17 |
| IMKCICVYVFINCHKWDVHA | inactive |
| IMKFDSRAYNGYMQMIRPGV | inactive |
| IMNCVLMKDIWYSVFNHR | 2.44 ± 0.067 |
| IMNSPKGYTILWRGSLRGIQ | inactive |
| IMPRPIKSRLNKNFLWAVVC | inactive |
| IMRGITEGWEPLVVES | inactive |
| IMRLHC | inactive |
| IMVCKWTSPTSTMPHDDLGC | inactive |
| IMVKLSIIIVYC | 1.76 ± 0.083 |
| IMVRGVRDS | inactive |
| IMVVQYTWDWPGCCWIRWYL | inactive |
| IMVWLRARSITYNQVDDRGS | inactive |
| IMYLRETGTK | inactive |
| INCSLENLINKDLWVSSQVC | inactive |
| INDLQTSPR | inactive |
| INLTYRVTVRVQISAPGMCA | -0.206 ± 0.65 |
| INNLFTRVSSIRFCVRS | inactive |
| INTNAYSGLEIYRYSTIAKG | inactive |
| INVDGKNNPSRREKTISMGG | inactive |

| Substance | amyloid nucleation score |
| --- | --- |
| INWYIHFRPLWQGFR | inactive |
| IPALIVISQYRGANRFDCAF | inactive |
| IPFGFSI | inactive |
| IPFLDKGYGR | inactive |
| IPFNPALLVPRGFGSFIIPA | inactive |
| IPYDSSLLNSSNVCYLI | inactive |
| IQANSLLSRLLRLSGNCCWM | 0.127 ± 0.8 |
| IQFLTNKQALLEKFPGKSPW | inactive |
| IQLCTKIYSITKV | inactive |
| IRDLSLNQSGYFTFVTCWRC | 2.73 ± 0.067 |
| IRDVG | -0.573 ± 1 |
| IRLFHEAIKGDLC | inactive |
| IRMIDWILLDAVT | inactive |
| IRNGYSRICRIQRLGSMGM | inactive |
| IRTSGSMYIISIWRWVGRTL | inactive |
| ISALKQSS | inactive |
| ISCIGPFCSTIPLIKLNLIE | 1.3 ± 0.1 |
| ISDTSCHIDTLRFLGRVRFL | inactive |
| ISLVAAKLRTCF | inactive |
| ISSAYCGHIGLAAINRLILT | inactive |
| ISSFGARNTPWRTLSPAPEG | 0.184 ± 0.32 |
| ISSPNEVWSVIVEWPRIYC | inactive |
| ISTRPSM | inactive |

| Substance | amyloid nucleation score |
| --- | --- |
| ISTVNNIRIRFASKLGFFE | 1.25 ± 0.071 |
| ISVVMDNSACG | inactive |
| ISYNTVRYRYGFVYNRLLPW | inactive |
| ITDLYF | inactive |
| ITGVFCTSHVRFNINFKLWE | 1.97 ± 0.063 |
| ITPWCFLVSCIRVSYAIVPT | inactive |
| ITSCCFVTLISVMSYGPCFG | 2.45 ± 0.089 |
| IVCYLSFASLDDLRTRHMCT | inactive |
| IVERKVRPAHFYYSLVYEQS | inactive |
| IVFNGLRSMNRE | inactive |
| IVITHANTWMLLLVFPITAN | inactive |
| IVRYTHSSLVYFTDEMMVNR | 1.19 ± 0.12 |
| IVSCTCDRMADLGST | inactive |
| IVSWLVRMVSWGVCRK | inactive |
| IVWASTWTCCTN | 2.73 ± 0.049 |
| IVYMDECLYQFNGPDVVPMF | inactive |
| IVYYGVTGLTRGFSEVRKIS | inactive |
| IWFKWNRCNVRGMTWTDFYA | 1.17 ± 0.082 |
| IWFWKGICLRYTSRKGMNLR | 1.75 ± 0.11 |
| IWMWLKTQSISRLGTGRTTN | inactive |
| IWPNRHGLKNVLRDQREATL | inactive |
| IWTLS | inactive |
| IWVWVWSYWGRNFLSLVRFV | inactive |

| Substance | amyloid nucleation score |
| --- | --- |
| IWWKNIGCAKYWVIPLRQWA | inactive |
| IYAPRR | inactive |
| IYCVNSSAFVLEPF | inactive |
| IYKSTFFKVRTSGPGRHFGF | 0.186 ± 0.37 |
| IYPFSDMLSFWGMGKCELLR | -0.361 ± 1.1 |
| IYPVNFGWLLGFCAHPAIYD | inactive |
| IYRLKDRLDDLVSHVDICVV | inactive |
| IYRVYYDSTLGMCPAWGFYK | inactive |
| IYSMYQCLFVEHFS | inactive |
| IYTCSTRSSSFYRRMIRSFL | inactive |
| IYTVWMAKGVTPVQKGPSRY | inactive |
| IYVARSGARGRGSWSLCKIC | 0.629 ± 0.28 |
| IYVDVNSDP | inactive |
| IYVVLQTWHNYAMLTITGLV | 0.228 ± 0.67 |
| IYYIDL | inactive |
| KAFCFF | 1.24 ± 0.12 |
| KAFFESMFWV | inactive |
| KARANFVYAKFHFTRAP | inactive |
| KAVLWFGDIWRQVG | inactive |
| KAYISVIGKLDYQNFSMKRF | 2.41 ± 0.054 |
